Assay results as given in patent US6218527.

Key:
[1] = molecular target: T1, ABF1 (Arabidopsis thaliana) (UniProt Q9M7Q5); assay: one_hybrid
T1 sequence: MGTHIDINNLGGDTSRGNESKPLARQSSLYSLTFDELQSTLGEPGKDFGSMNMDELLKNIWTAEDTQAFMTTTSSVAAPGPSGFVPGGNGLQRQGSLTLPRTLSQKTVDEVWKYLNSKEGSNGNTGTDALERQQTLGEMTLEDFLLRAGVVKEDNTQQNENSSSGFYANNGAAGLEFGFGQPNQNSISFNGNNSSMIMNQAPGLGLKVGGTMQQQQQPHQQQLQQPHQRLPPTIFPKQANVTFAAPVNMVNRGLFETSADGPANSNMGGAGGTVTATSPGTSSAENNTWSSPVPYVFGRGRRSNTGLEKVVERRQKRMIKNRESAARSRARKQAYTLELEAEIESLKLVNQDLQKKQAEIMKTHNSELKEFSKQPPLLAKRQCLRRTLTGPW

[2] = test system: ABF2 (Arabidopsis thaliana); assay: one_hybrid

In the case of Em1a trimer reporter, the activity (fold over control vector) [1] is reported as 6 and the activity (fold over background) [2] is reported as 2.
